Measured values published in PMC3812353.

T1: MutS-IAANS (MutS-C42A/M88C) (Thermus aquaticus (printed as T. …, UniProt Q56215 1-811, C42A;M88C))
T1 sequence: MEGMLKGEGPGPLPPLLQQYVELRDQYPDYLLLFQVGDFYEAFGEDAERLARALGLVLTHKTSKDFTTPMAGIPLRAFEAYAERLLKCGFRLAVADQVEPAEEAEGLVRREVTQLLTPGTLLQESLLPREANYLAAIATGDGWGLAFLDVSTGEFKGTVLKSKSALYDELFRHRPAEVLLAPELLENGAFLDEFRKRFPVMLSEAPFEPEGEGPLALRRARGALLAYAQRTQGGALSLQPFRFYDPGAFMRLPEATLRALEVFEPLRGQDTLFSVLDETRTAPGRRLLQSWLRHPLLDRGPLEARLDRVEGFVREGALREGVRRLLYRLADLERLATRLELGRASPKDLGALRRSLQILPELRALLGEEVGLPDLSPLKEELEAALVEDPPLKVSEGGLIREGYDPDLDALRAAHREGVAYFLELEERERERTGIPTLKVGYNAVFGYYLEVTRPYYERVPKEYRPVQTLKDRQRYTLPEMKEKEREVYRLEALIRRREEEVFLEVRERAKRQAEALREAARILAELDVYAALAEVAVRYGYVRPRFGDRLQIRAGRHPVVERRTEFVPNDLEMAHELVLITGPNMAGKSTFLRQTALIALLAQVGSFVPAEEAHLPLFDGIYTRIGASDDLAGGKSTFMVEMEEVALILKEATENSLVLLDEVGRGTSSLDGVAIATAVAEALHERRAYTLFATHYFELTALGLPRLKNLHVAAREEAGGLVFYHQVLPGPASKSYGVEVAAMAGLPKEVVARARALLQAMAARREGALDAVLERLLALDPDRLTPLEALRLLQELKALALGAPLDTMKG

T2: MutS-F39A-IAANS (Thermus aquaticus (printed as T. …, UniProt Q56215 1-811, F39A;C42A;M88C))
T2 sequence: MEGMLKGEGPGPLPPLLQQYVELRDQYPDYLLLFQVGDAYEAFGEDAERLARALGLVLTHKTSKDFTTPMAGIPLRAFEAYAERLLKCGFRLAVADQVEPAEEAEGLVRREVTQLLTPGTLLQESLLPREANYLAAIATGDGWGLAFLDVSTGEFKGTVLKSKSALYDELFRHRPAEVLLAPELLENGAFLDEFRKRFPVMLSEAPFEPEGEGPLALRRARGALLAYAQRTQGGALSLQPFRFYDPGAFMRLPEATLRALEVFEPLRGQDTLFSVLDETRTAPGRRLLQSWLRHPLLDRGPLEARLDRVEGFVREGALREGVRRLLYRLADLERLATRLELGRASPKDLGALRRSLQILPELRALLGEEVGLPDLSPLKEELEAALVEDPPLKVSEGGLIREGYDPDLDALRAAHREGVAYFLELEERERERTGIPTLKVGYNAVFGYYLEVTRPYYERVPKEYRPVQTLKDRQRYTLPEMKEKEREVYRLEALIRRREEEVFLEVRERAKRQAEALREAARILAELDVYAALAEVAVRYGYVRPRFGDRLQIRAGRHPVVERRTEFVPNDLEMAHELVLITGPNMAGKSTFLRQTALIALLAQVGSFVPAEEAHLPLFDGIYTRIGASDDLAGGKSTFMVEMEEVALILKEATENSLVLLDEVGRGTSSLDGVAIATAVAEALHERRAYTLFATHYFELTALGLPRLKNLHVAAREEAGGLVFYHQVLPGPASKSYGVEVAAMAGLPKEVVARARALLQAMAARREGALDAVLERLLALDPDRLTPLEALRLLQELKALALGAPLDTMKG

T3: MutS (wild type) (Thermus aquaticus (printed as T. …, UniProt Q56215 1-811))
T3 sequence: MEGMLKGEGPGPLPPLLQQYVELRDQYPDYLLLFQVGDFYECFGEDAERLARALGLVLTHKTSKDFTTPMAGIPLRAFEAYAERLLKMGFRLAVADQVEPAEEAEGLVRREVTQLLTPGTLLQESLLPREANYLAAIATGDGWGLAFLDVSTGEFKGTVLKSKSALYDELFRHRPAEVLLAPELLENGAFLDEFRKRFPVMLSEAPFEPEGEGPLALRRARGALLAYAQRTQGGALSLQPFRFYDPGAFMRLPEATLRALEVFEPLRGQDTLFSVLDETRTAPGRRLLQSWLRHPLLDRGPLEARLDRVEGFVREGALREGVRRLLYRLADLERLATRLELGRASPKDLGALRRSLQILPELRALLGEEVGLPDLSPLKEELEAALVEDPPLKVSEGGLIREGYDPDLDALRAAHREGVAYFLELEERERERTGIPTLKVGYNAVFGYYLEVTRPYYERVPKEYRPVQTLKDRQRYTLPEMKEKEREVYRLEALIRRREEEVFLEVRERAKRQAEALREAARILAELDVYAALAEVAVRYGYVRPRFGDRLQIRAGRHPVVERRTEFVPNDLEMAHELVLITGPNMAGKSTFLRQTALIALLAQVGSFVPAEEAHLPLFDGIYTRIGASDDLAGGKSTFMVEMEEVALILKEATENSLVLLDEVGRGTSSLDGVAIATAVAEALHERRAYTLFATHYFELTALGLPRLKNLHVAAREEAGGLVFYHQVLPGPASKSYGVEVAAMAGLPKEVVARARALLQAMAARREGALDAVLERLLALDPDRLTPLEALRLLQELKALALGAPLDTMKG

T4: MutS-F39A (Thermus aquaticus (printed as T. …, UniProt Q56215 1-811, F39A))
T4 sequence: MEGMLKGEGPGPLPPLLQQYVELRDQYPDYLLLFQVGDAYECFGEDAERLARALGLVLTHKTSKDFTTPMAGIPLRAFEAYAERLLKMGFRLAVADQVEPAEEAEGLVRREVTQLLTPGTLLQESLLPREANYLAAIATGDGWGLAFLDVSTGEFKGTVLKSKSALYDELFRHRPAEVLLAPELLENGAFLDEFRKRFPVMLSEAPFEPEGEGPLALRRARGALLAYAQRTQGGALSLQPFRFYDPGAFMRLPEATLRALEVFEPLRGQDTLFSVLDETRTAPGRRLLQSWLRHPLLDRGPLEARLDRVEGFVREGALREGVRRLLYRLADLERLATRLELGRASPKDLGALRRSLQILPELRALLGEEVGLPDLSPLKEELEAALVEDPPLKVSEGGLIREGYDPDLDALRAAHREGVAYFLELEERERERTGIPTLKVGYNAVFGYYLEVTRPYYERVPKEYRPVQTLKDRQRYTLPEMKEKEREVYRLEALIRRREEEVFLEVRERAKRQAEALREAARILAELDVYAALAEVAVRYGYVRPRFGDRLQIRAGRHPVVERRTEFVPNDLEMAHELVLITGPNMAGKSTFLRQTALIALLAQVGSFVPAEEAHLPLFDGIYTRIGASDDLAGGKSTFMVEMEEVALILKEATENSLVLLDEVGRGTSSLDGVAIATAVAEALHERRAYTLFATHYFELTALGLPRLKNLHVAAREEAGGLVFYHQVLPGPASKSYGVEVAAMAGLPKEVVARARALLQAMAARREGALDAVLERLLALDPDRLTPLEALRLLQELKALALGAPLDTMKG

B1: DNA(+T) (dsDNA)
DNA 1: ATGTGAATCAGTATGGTATATATCTGCTGAAGGAAAT
DNA 2: ATTTCCTTCAGCAGATATTACCATACTGATTCACAT
B2: DNA(+T)TAMRA (dsDNA)
DNA 1: ATGTGAATCAGTATGGTATATATCTGCTGAAGGAAAT
DNA 2: ATTTCCTTCAGCAGATATTACCATACTGATTCACAT
modifications: 3' amino linker

Legend:
[1] = molecular target: T1, MutS-IAANS (MutS-C42A/M88C); experiment: IAANS fluorescence quenching, equilibrium
MutS-F39A-IAANS = molecular target: T2, MutS-F39A-IAANS; experiment: IAANS fluorescence quenching, equilibrium and stopped-flow
[2] = molecular target: T1, MutS-IAANS (MutS-C42A/M88C); experiment: stopped-flow IAANS fluorescence
MutS (wild type) [3] = molecular target: T3, MutS (wild type); experiment: stopped-flow fluorescence anisotropy
MutS (wild type) [4] = molecular target: T3, MutS (wild type); experiment: fluorescence anisotropy, equilibrium
MutS-F39A = molecular target: T4, MutS-F39A; experiment: fluorescence anisotropy, equilibrium

Binder | Kd [1] [nM] | binding result (MutS-F39A-IAANS) | apparent K (half saturation) [2] [nM] | apparent K (half saturation) (MutS (wild type) [3]) [µM] | Kd (MutS (wild type) [4]) [nM] | binding result (MutS-F39A)
B1 | 22 ± 4 | no binding | 2300 ± 700 | – | – | –
B2 | – | – | – | 5 ± 2 | 13 ± 2 | no binding
